In publication PMC11828899, “Structural insights into human brachyury DNA recognition and discovery of progressible binders for cancer therapy”:

Tests used:
[1] = biological target: T1, Brachyury full-length G177D (Homo sapiens, UniProt O15178 1-435, G177D); assay: SPR; protein immobilized; steady-state fit; EMSA: 25 mM HEPES pH 7.4, 75 mM NaCl, 10% glycerol, 0.1% Tween 20, 1 mM TCEP, on ice 10 min; SPR: 10 mM HEPES pH 7.5, 150 mM NaCl, 1 mM DTT, 1% DMSO, temperature not stated; details: protein: recombinant; tags: C-terminal AVI tag, biotinylated; N-terminal 9His-GST removed with TEV (construct stated for SPR/DSF); chain copies: 2; label: 32P 5' end (EMSA); none stated (SPR); blunt
T1 sequence: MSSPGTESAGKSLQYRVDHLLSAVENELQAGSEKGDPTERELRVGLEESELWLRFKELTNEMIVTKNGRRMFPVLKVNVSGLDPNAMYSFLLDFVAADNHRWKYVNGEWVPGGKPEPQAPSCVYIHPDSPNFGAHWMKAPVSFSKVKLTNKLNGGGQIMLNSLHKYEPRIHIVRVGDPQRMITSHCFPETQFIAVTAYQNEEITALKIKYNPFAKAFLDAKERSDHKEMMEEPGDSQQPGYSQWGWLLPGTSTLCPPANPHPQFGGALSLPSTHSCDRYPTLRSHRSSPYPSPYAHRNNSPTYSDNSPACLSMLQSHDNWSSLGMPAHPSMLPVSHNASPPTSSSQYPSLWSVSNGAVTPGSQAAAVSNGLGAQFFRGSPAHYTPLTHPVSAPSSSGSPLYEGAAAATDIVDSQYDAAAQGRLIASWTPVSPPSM

Brachyury full-length WT [2] = biological target: T2, Brachyury full-length WT (Homo sapiens, UniProt O15178 1-435); assay: as above; details: protein: recombinant; tags: C-terminal AVI tag, biotinylated; N-terminal 9His-GST removed with TEV (construct stated for SPR/DSF); chain copies: 2; label: 32P 5' end (EMSA); none stated (SPR); blunt
T2 sequence: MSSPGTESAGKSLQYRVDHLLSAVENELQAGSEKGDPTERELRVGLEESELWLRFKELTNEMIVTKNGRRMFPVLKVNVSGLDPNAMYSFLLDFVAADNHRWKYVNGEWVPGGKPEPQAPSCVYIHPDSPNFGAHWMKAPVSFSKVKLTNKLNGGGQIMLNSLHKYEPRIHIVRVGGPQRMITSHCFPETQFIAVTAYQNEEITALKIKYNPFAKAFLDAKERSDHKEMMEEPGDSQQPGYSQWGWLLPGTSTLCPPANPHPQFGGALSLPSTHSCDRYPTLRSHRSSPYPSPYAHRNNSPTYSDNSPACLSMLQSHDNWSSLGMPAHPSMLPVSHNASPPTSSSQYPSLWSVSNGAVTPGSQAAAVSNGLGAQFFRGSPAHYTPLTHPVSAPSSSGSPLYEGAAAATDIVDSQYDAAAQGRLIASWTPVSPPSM

[3] = biological target: T1, Brachyury full-length G177D; assay: EMSA; apparent; Hill slope 1.8; DNA 1-5 nM; EMSA: 25 mM HEPES pH 7.4, 75 mM NaCl, 10% glycerol, 0.1% Tween 20, 1 mM TCEP, on ice 10 min; SPR: 10 mM HEPES pH 7.5, 150 mM NaCl, 1 mM DTT, 1% DMSO, temperature not stated; details: protein: recombinant; tags: C-terminal AVI tag, biotinylated; N-terminal 9His-GST removed with TEV (construct stated for SPR/DSF); chain copies: 2; label: 32P 5' end (EMSA); none stated (SPR); blunt
Brachyury full-length WT [4] = biological target: T2, Brachyury full-length WT; assay: EMSA; apparent; Hill slope 2.3; DNA 1-5 nM; EMSA: 25 mM HEPES pH 7.4, 75 mM NaCl, 10% glycerol, 0.1% Tween 20, 1 mM TCEP, on ice 10 min; SPR: 10 mM HEPES pH 7.5, 150 mM NaCl, 1 mM DTT, 1% DMSO, temperature not stated; details: protein: recombinant; tags: C-terminal AVI tag, biotinylated; N-terminal 9His-GST removed with TEV (construct stated for SPR/DSF); chain copies: 2; label: 32P 5' end (EMSA); none stated (SPR); blunt
[5] = biological target: T3, Brachyury DNA binding domain WT (Homo sapiens, UniProt O15178 41-224); assay: X-ray crystallography; 2.25 A; two protomers per duplex; EMSA: 25 mM HEPES pH 7.4, 75 mM NaCl, 10% glycerol, 0.1% Tween 20, 1 mM TCEP, on ice 10 min; SPR: 10 mM HEPES pH 7.5, 150 mM NaCl, 1 mM DTT, 1% DMSO, temperature not stated; details: protein: recombinant; chain copies: 2; blunt, self-complementary, 2 copies of strand
T3 sequence: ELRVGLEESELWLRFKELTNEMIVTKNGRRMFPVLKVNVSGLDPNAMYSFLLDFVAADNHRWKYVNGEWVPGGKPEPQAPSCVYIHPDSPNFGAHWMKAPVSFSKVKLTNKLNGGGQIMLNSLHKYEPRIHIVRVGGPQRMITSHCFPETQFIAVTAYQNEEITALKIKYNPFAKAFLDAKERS

[6] = biological target: T4, Brachyury DNA binding domain G177D (Homo sapiens, UniProt O15178 41-224, G177D); assay: X-ray crystallography; 2.15 A; two protomers per duplex; EMSA: 25 mM HEPES pH 7.4, 75 mM NaCl, 10% glycerol, 0.1% Tween 20, 1 mM TCEP, on ice 10 min; SPR: 10 mM HEPES pH 7.5, 150 mM NaCl, 1 mM DTT, 1% DMSO, temperature not stated; details: protein: recombinant; chain copies: 2; blunt, self-complementary, 2 copies of strand
T4 sequence: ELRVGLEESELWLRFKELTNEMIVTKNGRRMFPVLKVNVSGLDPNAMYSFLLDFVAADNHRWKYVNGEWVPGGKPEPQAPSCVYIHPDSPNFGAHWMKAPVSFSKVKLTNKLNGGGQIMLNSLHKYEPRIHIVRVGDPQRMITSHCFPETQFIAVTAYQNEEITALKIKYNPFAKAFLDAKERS

B1: TA50 palindromic 50 bp (TA50-F/TA50-R) (dsDNA)
DNA 1: CATGCATGCAGGGAATTTCACACCTAGGTGTGAAATTCCCATTCGTGCGA
DNA 2: TCGCACGAATGGGAATTTCACACCTAGGTGTGAAATTCCCTGCATGCATG
- Kd [1]: 17.9 nM
- Kd (Brachyury full-length WT [2]): 14.8 ± 2.4 nM
- Kd [3]: 1.2 nM
- Kd (Brachyury full-length WT [4]): 1.4 nM

B2: 24 bp palindromic T-box DNA (dsDNA)
DNA 1: AATTTCACACCTAGGTGTGAAATT
DNA 2: AATTTCACACCTAGGTGTGAAATT
- binding result [5]: binds

B3: 26 bp palindromic T-box DNA (dsDNA)
DNA 1: GAATTTCACACCTAGGTGTGAAATTC
DNA 2: GAATTTCACACCTAGGTGTGAAATTC
- binding result [6]: binds
